Assays:
[1] = Biochemical fractionation of 293T cells expressing GST-p12; assay type: cell-based; settings: cycling cells, ~40 h expression, immunoblot of S2, S3, P3
Description: GST-p12 proteins were expressed in 293T cells from pCAGGS/GST-derived plasmids by transient transfection using Turbofect (Thermo Fisher Scientific). Cell media was changed 24 h after transfection, and cells were incubated overnight at 37°C, before being harvested, counted, pelleted (500 g, 5 min) and snap frozen in dry ice/ethanol. Biochemical fractionation of cells was performed essentially as described in [14]. Briefly, cell pellets thawed on ice were resuspended at 2.5× 10^7 cells/ml in buffer 1 (10 mm HEPES pH 7.9, 10 mm KCl, 1.5 mm MgCl2, 10% glycerol, 0.34 m sucrose, 1 mm DTT and protease inhibitors) and then supplemented with 0.1% Triton-X-100. Cells were incubated on ice for 5 min and nuclei (P1) were collected by centrifugation at 1300 g, 5 min, 4°C. The supernatant (S1) was clarified by further centrifugation (5 min, 20 000 × g, 4°C) to collect the cytosolic supernatant fraction (S2). The P1 nuclei were washed once with buffer 1 and then lysed for 30 min in buffer 2 (3 mM EDTA, 0.2 mM EGTA and 1 mM DTT, protease inhibitors). The chromatin (P3) and soluble nuclear (S3) fractions were separated by centrifugation (5 min, 1700 g, 4°C). The S2, S3 and P3 fractions were analysed by immunoblotting.

GST-p12_WT = assay: SILAC-MS of proteins enriched with GST-p12_WT relative to GST; assay type: binding, Mo-MLV; settings: log2(H/L) >2.58 SDs from mean
From the text: To test whether GST-p12 was acting like the p12 region of Gag, we used a global proteomic approach based on stable isotope labelling by amino acids in cell culture (SILAC)-mass spectrometry (MS) to look for host proteins that interact with GST-p12 [35, 36]. A schematic diagram of the workflow is illustrated in Fig 4A. Briefly, GST, GST-p12_mut14 and GST-p12_WT were transiently-expressed in 293T cells cultured in light (R0/K0), medium (R6/K4) and heavy (R10/K8) SILAC media, respectively. Next, lysates of nocodazole treated transfected cells were prepared, normalised and used for parallel pull-down assays with glutathione-sepharose beads. The eluates from the beads were then pooled in a 1:1:1 ratio and subjected to LC-MS/MS analysis. The experiment was performed using biological replicates to test reproducibility of the mass-spec hits. The pull-down assays for this experiment were performed using mitotic cell lysates to facilitate identification of any potential chromatin interactions that were previously missed.
After removal of obvious contaminants (e.g. keratin) and non-quantified hits, 948 and 879 proteins were identified in replicates 1 and 2 (R1 and R2) of the experiment respectively (the false discovery rate (FDR) was set at 5%). To select proteins enriched in the heavy-labelled (H) GST-p12_WT sample relative to the light-labelled (L) GST sample, we compared the log2(H/L) silac ratios of the mass-spectrometry hits. When plotted as a frequency distribution, the log2(H/L) ratios of each replicate fitted well to a normal distribution curve (R^2 ≥ 0.98), allowing the mean and standard deviation to be accurately estimated (Fig 4B). In this experiment, contaminants/non-specifically bound cellular proteins were assumed to cluster around the mean of the distribution. […] Twenty one such proteins were identified in R1 and 22 identified in R2 (Fig 4B Venn diagram). […] These proteins were then ranked based on normalised abundance in the group. In mass-spectrometry analysis, larger proteins are in general assigned higher scores. Therefore, to control for protein size, we divided the number of peptide spectral matches identified for each protein with its length and then normalised the values across the group (Fig 4C and 4D). When ranked this way, the clathrin heavy chain (CLTC), clathrin interactor 1 (CLINT1) and NEDD4-like E3 ubiquitin ligase (WWP2) were identified as the top three hits. […] The function of clathrin in MLV infection is unclear. […] Thus, clathrin binding may be relevant to the early stages of MLV replication and should be investigated further.
For SILAC-MS experiments, 293T cells were grown is media containing light (R0K0, ^12C-Arginine and ^12C-Lysine), medium (R6K4, ^13C-Arginine and Lysine-4,4,5,5-d4) or heavy (R10K8, ^13C+^15N-Arginine and ^13C+^15N-Lysine) versions of L-Arginine and L-Lysine amino acids (Pierce) for a minimum of 6 doublings before transient expression of GST-p12 proteins. After performing the glutathione-sepharose pull-down assays equivalent volumes of the beads eluates were pooled and submitted to the Bristol University Proteomics Facility for RP nano-LC-MS/MS analysis. This analysis was performed on an LTQ-Orbitrap Velos mass spectrometer in line with a Dionex Ultimate 3000 nanoHPLC system as described in [53].
Supplementary file ppat.1007117.s005.xlsx: S1 Table Results from the first SILAC-MS analysis. GST, Mo-MLV GST-p12_mut14 or GST-p12_WT were transiently-expressed in 293T cells cultured in light (R0/K0), medium (R6/K4) and heavy (R10/K8) SILAC media, respectively. Mitotic cell lysates were subsequently used for glutathione-sepharose bead pull-down assays. Bead eluates were pooled in a 1:1:1 ratio and then analysed by LC-MS/MS. […] (XLSX) Click here for additional data file.

B1: GST-p12_WT: N-terminally GST-tagged Mo-MLV p12 (protein)
chain: PALTPSLGAKPKPQVLSDSGGPLIDLLTEDPPPYRDPRPPPSDRDGNGGEATPAGEAPDPSPMASRLRGRREPPVADSTTSQAF
modifications: left off: GST, N-terminal, kept
notes: N-terminally GST-tagged Mo-MLV p12
In the case of B1, the “sub-cellular distribution by fractionation” value [1] is reported as “mainly cytoplasmic”, the “number of proteins significantly enriched vs GST in both replicates” value (GST-p12_WT; R1 and R2) is reported as “seven” and the “number of proteins significantly enriched vs GST” value (GST-p12_WT; replicate 1) is reported as “Twenty one”. For the same molecule, the “number of proteins significantly enriched vs GST” value (GST-p12_WT; replicate 2) was 22 proteins.

From publication PMC6021111, “Murine leukemia virus p12 tethers the capsid-containing pre-integration complex to chromatin by binding directly to host nucleosomes in mitosis” (PLoS Pathogens, 2018)
